One test concerns the target T1, MRGPRX2 (Homo sapiens, UniProt Q96LB1).
T1 sequence (Q96LB1 1-330): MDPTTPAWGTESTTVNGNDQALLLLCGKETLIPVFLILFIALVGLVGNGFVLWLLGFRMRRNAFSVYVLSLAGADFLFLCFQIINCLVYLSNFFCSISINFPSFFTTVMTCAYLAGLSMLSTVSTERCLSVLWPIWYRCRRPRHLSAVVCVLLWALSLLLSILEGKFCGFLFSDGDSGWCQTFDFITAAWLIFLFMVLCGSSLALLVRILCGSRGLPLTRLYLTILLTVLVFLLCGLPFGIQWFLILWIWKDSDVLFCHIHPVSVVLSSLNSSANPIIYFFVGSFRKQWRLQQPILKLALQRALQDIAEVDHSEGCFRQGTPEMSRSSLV
Description: calcium mobilization assay, CHEM-1 cells recombinantly expressing MRGPRX2. Format: cell-based. The arrangement: host or cells: CHEM-1 adherent rat hematopoietic cells. The following applies: for MRGPRX2 activation, Readout 1 / MRGPRX2 activation, Readout 2: Fig. 3b, fragment 1 µM, normalized to 1 µM CXCL14 (100%); for MRGPRX2 activation (in words): large CXCL14 fragments, CHEM1 cells overexpressing MRGPRX2; for EC50: Fluo-8, FLIPR, read-out: EC50, calcium mobilization assays; for pEC50: Fig. 3d. The text has this: To confirm the initial results obtained in the β-arrestin recruitment assays, we established calcium mobilization assays in two different recombinant cell lines, CHEM-1 and LN229 cells, respectively. CHEM-1 cells are adherent rat hematopoietic cells with a high endogenous expression level of the promiscuous Gα15 protein enabling the measuring of calcium signaling of a large variety of GPCRs. […]. Subsequently, we employed recombinant human glioblastoma LN229 cells, a human cell line derived from glioblastoma multiforme tumors. […].
The cell lines CHEM1 and CHEM1-MRGPRX2 are adherent rat cell lines (HTSCHEM-1RTA, HTS058RTA, Merck-Millipore, Darmstadt, Germany); which were cultured under standard cell culture conditions.
A cell-based fluorometric assay was employed for the determination of intracellular calcium release using Fluo-8. Cells were seeded into microtiter plates and incubated under standard cell culture conditions. After 24 h the medium was removed, and the cells were washed with phosphate-buffered saline (PBS). The cells were incubated with loading buffer (40 ml PBS with 2 mM Ca^2+, 800 µl of brilliant black solution (2%), 732 µl of probenecid solution (0.5 M) in 1 N NaOH, 400 µL of pluronic (10%) in water, and 152 µl of Fluo-8 (5.7 ng/ml in water)) for 30 min. For fluorescence readout and compound testing a FLIPR tetra system was used according to the manufacture’s protocol (Molecular Devices, CA 94089- 1136, USA).

Test [1] has as its target MRGPRX2 in the calcium mobilization assays of the small CXCL14 fragments and mutants (human) (UniProt Q96LB1).
Test [2] concerns the target MRGPRX2 fused to ProLink (PK), in CHO β-arrestin cells (human) (UniProt Q96LB1).
For test [3], the target named is MRGPRX2 in CHEM-1 cells (human) (UniProt Q96LB1).
The target in test [4] is MRGPRX2 in the calcium mobilization assays of the small CXCL14 fragments and mutants (human) (UniProt Q96LB1). The source holds these as a separate data set.
Test [5] addresses T2, mouse MRGPRB2 in 1321N1 astrocytoma cells (mouse) (UniProt Q3KNA1).
T2 sequence: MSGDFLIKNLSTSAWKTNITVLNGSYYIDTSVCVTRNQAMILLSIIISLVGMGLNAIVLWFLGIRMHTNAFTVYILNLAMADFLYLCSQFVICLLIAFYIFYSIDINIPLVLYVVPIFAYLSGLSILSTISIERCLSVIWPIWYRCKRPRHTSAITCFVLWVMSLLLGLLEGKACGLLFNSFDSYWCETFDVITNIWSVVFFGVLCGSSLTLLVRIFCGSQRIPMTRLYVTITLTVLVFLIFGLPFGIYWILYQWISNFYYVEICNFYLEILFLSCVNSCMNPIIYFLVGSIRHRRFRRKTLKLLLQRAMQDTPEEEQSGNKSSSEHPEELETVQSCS

Where [6] appears, read: CHEM-1 cells recombinantly expressing MRGPRX2.

Like-named read-outs stand apart in the source and are kept apart here.

Consider “CXCL14(1-44): large CXCL14 fragment, inactive (SKCKCSRKGPKIRYSDVKKLEMKPKYPHCEEKMVIITTKSVSRY)”, for which, in the test with MRGPRX2, the “MRGPRX2 activation, Readout 1” value is recorded as 0.3%; the “MRGPRX2 activation, Readout 2” value is 0.6%; the “MRGPRX2 activation (in words)” value was “inactive”.

B1: CXCL14(57-63) (peptide)
peptide: STKRFIK
As for B1, the EC50, calcium mobilization at MRGPRX2 in test [1] is above 10000 nM. In test [2], this molecule displayed an EC50, β-arrestin recruitment at MRGPRX2 of 50400 nM and an Emax, β-arrestin recruitment at MRGPRX2, normalized to the maximal effect of CXCL14 of 53%.

B2: CXCL14(39-77) (domain or fragment)
chain: KSVSRYRGQEHCLHPKLQSTKRFIKWYNAWNEKRRVYEE
For B2, in test [3], the EC50, calcium mobilization, CHEM1 cells overexpressing MRGPRX2 was 680 nM and the Emax, calcium mobilization, CHEM1 cells overexpressing MRGPRX2, normalized to the maximal effect of CXCL14 amounted to 164%.

B3: CXCL14(59-65) (peptide)
peptide: KRFIKWY
Consider B3, for which, in test [4], the EC50, calcium mobilization at MRGPRX2 stood at 316 nM and the Emax, calcium mobilization at MRGPRX2 was 155%. Moreover, in test [5], the EC50, calcium mobilization, 1321N1 astrocytoma cells expressing MRGPRB2 worked out at 1260 nM and the Emax, calcium mobilization, 1321N1 astrocytoma cells expressing MRGPRB2 turned out to be 127%.

B4: CXCL14(1-32/56-77) (domain or fragment)
chain: SKCKCSRKGPKIRYSDVKKLEMKPKYPHCEEKQSTKRFIKWYNAWNEKRRVYEE
B4: in test [3], the EC50, calcium mobilization, CHEM1 cells overexpressing MRGPRX2 worked out at 678 nM and the Emax, calcium mobilization, CHEM1 cells overexpressing MRGPRX2, normalized to the maximal effect of CXCL14 stood at 175%.

B5: CXCL14(15-77) (domain or fragment)
chain: SDVKKLEMKPKYPHCEEKMVIITTKSVSRYRGQEHCLHPKLQSTKRFIKWYNAWNEKRRVYEE
The term EC50 denotes the concentration giving half of the maximal effect. The pEC50 is the EC50 on a negative log10 scale, so that one unit is a factor of ten. Regarding B5, the EC50 in the test with MRGPRX2 (setting [6]) was 751 nM. Further, the pEC50 in the test with MRGPRX2 (replicate column 1) was found to be 6.175; with MRGPRX2 (replicate column 2) it was 6.411. In addition, in test [3], the EC50, calcium mobilization, CHEM1 cells overexpressing MRGPRX2 was 751 nM.

B6: CXCL14(60-65) (peptide)
peptide: RFIKWY
Take B6: in test [4], the EC50, calcium mobilization at MRGPRX2 was found to be 2150 nM and the Emax, calcium mobilization at MRGPRX2 is 130%. Also, in test [5], the EC50, calcium mobilization, 1321N1 astrocytoma cells expressing MRGPRB2 came out at 2320 nM and the Emax, calcium mobilization, 1321N1 astrocytoma cells expressing MRGPRB2 amounted to 117%.

B7: CXCL14(1-11/18-77) (domain or fragment)
chain: SKCKCSRKGPKKKLEMKPKYPHCEEKMVIITTKSVSRYRGQEHCLHPKLQSTKRFIKWYNAWNEKRRVYEE
Turning to B7, in the test with MRGPRX2 (setting [6]), the “improvement of potency compared to CXCL14” value stood at 3 fold and the EC50 turned out to be 379 nM. Moreover, the “Emax, calcium mobilization assays” value with MRGPRX2 (CHEM-1 cells recombinantly expressing MRGPRX2, normalized to the maximal effect of CXCL14) is reported as 205%. In addition, in the test with MRGPRX2, the “MRGPRX2 activation, Readout 1” value amounted to 203% and the “MRGPRX2 activation, Readout 2” value was 208%. For the same molecule, in the test with MRGPRX2 (replicate column 1), the pEC50 turned out to be 6.419. For the same molecule, the pEC50 in the test with MRGPRX2 (replicate column 2) is reported as 6.454. Moreover, in test [3], the EC50, calcium mobilization, CHEM1 cells overexpressing MRGPRX2 came out at 379 nM and the Emax, calcium mobilization, CHEM1 cells overexpressing MRGPRX2, normalized to the maximal effect of CXCL14 is 205%.

B8: CXCL14(1-56/64-77): largest inactive CXCL14 fragment, lacks STKRFIK (peptide)
chain: SKCKCSRKGPKIRYSDVKKLEMKPKYPHCEEKMVIITTKSVSRYRGQEHCLHPKLQWYNAWNEKRRVYEE
In the case of B8, in the test with MRGPRX2, the “MRGPRX2 activation, Readout 1” value is given as 10%; the “MRGPRX2 activation, Readout 2” value is on record as 8%; the “MRGPRX2 activation (in words)” value was “inactive”.

B9: CXCL14(1-63): large CXCL14 fragment, inactive (peptide)
chain: SKCKCSRKGPKIRYSDVKKLEMKPKYPHCEEKMVIITTKSVSRYRGQEHCLHPKLQSTKRFIK
For the molecule B9, in the test with MRGPRX2, the “MRGPRX2 activation, Readout 1” value came out at 36%; the “MRGPRX2 activation, Readout 2” value was found to be 38%; the “MRGPRX2 activation (in words)” value is “inactive”.

The record behind these values is article PMC10771525 (Communications Biology, 2024).
